Results on 25 compounds are retold here after patent publication US20060149033A1, “IGF antagonist peptides” (GENENTECH, INC., priority 2001, published 2006).

pIC50: −log10 of the molar value. Bridge positions count the residues as written; N and C are the ends. Peptide text beside a SMILES is read from it.

The target in the first assay is T1, IGF-1 (Homo sapiens, UniProt P05019).
T1 construct: made in house
T1 sequence (P05019 49-118 limits assumed): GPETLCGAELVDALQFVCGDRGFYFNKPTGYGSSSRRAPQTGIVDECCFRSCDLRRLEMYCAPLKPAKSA
Description: Affinity measurement by monovalent phage ELISA (phage competition IC50). Format: binding. To be noted: positive second generation clones. As to the method: E. coli XL1-Blue harboring phagemids were grown overnight at 37° C. in 2YT, 50 μg/mL carbenicillin, 10 μg/mL tetracycline and M13-VCS helper phage (10^10 phage/mL). Phage were harvested from the culture supernatant by precipitation twice with PEG/NaCl and resuspended in phosphate-buffered saline, 0.2% BSA, 0.1% TWEEN®-20 detergent (BSA blocking buffer). Phage concentrations were determined spectrophotometrically (λ268=1.2×10^8 M^−1 cm^−1).
MAXISORP™ immunoplates (96-well) were coated with capture target protein for 2 hours at room temperature (100 μL at 5 μg/mL in 50 mM carbonate buffer, pH 9.6). The plates were then blocked for 1 h with 0.2% BSA in phosphate-buffered saline (PBS) and washed eight times with PBS, 0.05% TWEEN®-20 detergent. Phage particles were serially diluted into BSA blocking buffer and 100 μL were transferred to coated wells. After 1 h, plates were washed eight times with PBS, 0.05% TWEEN®-20 detergent, incubated with 100 μL of 1:3000 horse radish peroxidase/anti-M13 antibody conjugate in BSA blocking buffer for 30 min, and then washed eight times with PBS, 0.05% TWEEN®-20 detergent and two times with PBS. Plates were developed using a tetramethylbenzidine substrate (TMB, Kirkegaard and Perry, Gaithersburg, Md.), stopped with 1.0 M H3PO4, and read spectrophotometrically at […].
Affinity Measurement by Monovalent Phage ELISA
Phage ELISAs were carried out as described above, using plates coated with IGF-1. Peptide-displaying phage were serially diluted and binding was measured to determine a phage concentration giving <50% of the ELISA signal at saturation.
A fixed, subsaturating concentration of peptide-phage was mixed with serial dilutions of IGF-1 and incubated for 1.0 hr and then transferred to assay plates coated with IGF-1. After 30-min incubation, the plates were washed and developed as described above. The binding affinities of the peptides for IGF-1 were determined as IC50 values where the IC50 value is defined as the concentration of IGF-1 that blocked 50% of the peptide-phage binding to the immobilized IGF-1.
“F2-B (VRCAYDAGGSRYCWE; Sequence is synthesized) [Peptide F2-B]” showed a pIC50 of 4.61.

The compound “F2-K (YRCATDLAGFSYCWA; Sequence is synthesized) [Peptide F2-K]” showed a pIC50 of 5.84.

The compound “F2-N (WRCVTDAGGRPYCWA; Sequence is synthesized) [Peptide F2-N]” gave a pIC50 of 5.93. The compound “F1-F (FECLTSVEALRGCMY; Sequence is synthesized) [Peptide F1-F]” showed a pIC50 of 6.54.

In the case of “F2-C (VKCARDLSGFVYCWA; Sequence is synthesized) [Peptide F2-C]”, the pIC50 is 2.00.

“F2-A (GGCASDLAGFRYCWE; Sequence is synthesized) [Peptide F2-A]” showed a pIC50 of 5.88. The same measure, in the same setting: next, “F2-D (VRCAWDLGGRAYCWA; Sequence is synthesized) [Peptide F2-D]”: 3.60. The compound “F1-H (MDCLASVEALKWCMY; Sequence is synthesized) [Peptide F1-H]” showed a pIC50 of 6.83. On the same count and under the same terms, the result for “F1-B (FGCYESVAALRTCMY; Sequence is synthesized) [Peptide F1-B]” reads 6.52; that for “F2-J (LRCAEDLGGYFYCWA; Sequence is synthesized) [Peptide F2-J]”, 5.67. Compound “F2-H (WRCVDDLGGFQYCWA; Sequence is synthesized) [Peptide F2-H]” showed a pIC50 of 6.50. Turning to “F1-E (SDCFGSVEALKMCMY; Sequence is synthesized) [Peptide F1-E]”, the pIC50 was 6.15.

The compound “F2-E (LGCASDLAGFWYCWA; Sequence is synthesized) [Peptide F2-E]” gave a pIC50 of 6.26. As for “F1-G (SDCFESVEALRACMY; Sequence is synthesized) [Peptide F1-G]”, the pIC50 is 6.01.

In turn, “F2-G (ASCVADAGGGGYCWD; Sequence is synthesized) [Peptide F2-G]” showed a pIC50 of 6.01.

In the case of “F2-L (ARCARDAGGFYYCWA; Sequence is synthesized) [Peptide F2-L]”, the pIC50 was 5.36.

Compound “F1-A (HPCLESVGALKACMY; Sequence is synthesized) [Peptide F1-A]” had a pIC50 of 6.40. With “F2-I (VTCAADALGFLYCWE; Sequence is synthesized) [Peptide F2-I]”, the pIC50 was 5.99.

For “F1-C (RNCFESVAALRRCMY; Sequence is synthesized) [Peptide F1-C]”, the pIC50 is 6.97. Turning to “F2-M (WRCAQDAGGWTYCWA; Sequence is synthesized) [Peptide F2-M]”, the pIC50 was 5.98.

With “F2-F (FRCAWELGWLYVLGL; Sequence is synthesized) [Peptide F2-F]”, the pIC50 was 3.68.

In the next assay the test system is human type 1 IGF-1 receptor. Put plainly: Cell-based IGF-1 KIRA assay. The following applies: MCF-7 cells; peptides preincubated 30 min with 2 nm IGF-1; 15-minute stimulation. On the procedure:
Cell-Based IGF-1 KIRA Assay
A KIRA for measuring the activation of the human type 1 IGF-1 receptor was performed using human MCF-7 cells (as described above). Cells were grown overnight in 96-well plates with medium (50:50 F12/DMEM, Gibco). Supernatants were decanted, and stimulation media (50:50 F12/DMEM with 25 mM HEPES and 2.0% BSA) containing either controls (2 nM IGF-1 preincubated with IGF Bp1 or Bp3) or experimental samples (Peptides preincubated for 30 min. with 2 nm IGF-1) were added. After 15-minute stimulation the cells were lysed, and added to the polyclonal anti-IGF-R (3B7 Santa Cruz Biotech) coated overnight on immunosorbant plates. The detection ELISA was performed as above.
`CSCC[C@H](NC(=O)[C@@H]1CSSC[C@H](NC(=O)[C@H](CCC(=O)O)NC(=O)[C@@H](N)CC(=O)O)C(=O)N[C@@H](CC(C)C)C(=O)N[C@@H](CCSC)C(=O)N[C@@H](CO)C(=O)N[C@@H](C(C)C)C(=O)N[C@@H](CCC(=O)O)C(=O)N[C@@H](C)C(=O)N[C@@H](CC(C)C)C(=O)N[C@@H](CCCCN)C(=O)N[C@@H](CC(N)=O)C(=O)N1)C(=O)NCC(=O)NCC(=O)O` [Peptide F1-P, DECLMSVEALKNCMGG] (H-DECLMSVEALKNCMGG-OH; disulfide 3-13) showed a pIC50 of 3.40. `CC(C)C[C@@H]1NC(=O)[C@H](CC(=O)O)NC(=O)[C@H](CC(=O)O)NC(=O)[C@H](C(C)C)NC(=O)[C@@H](NC(=O)[C@H](CCCNC(=N)N)NC(=O)[C@@H](N)Cc2c[nH]c3ccccc23)CSSC[C@@H](C(=O)N[C@@H](Cc2c[nH]c3ccccc23)C(=O)N[C@@H](C)C(=O)NCC(=O)O)NC(=O)[C@H](Cc2ccc(O)cc2)NC(=O)[C@H](CCC(N)=O)NC(=O)[C@H](Cc2ccccc2)NC(=O)CNC(=O)CNC1=O` [Peptide F2-2, WRCVDDLGGFQYCWAG] (H-WRCVDDLGGFQYCWAG-OH; disulfide 3-13 (inferred); N-terminus and C-terminus assumed) gave a pIC50 of 3.89.

A further assay has as its system human insulin receptor (hIR). Put plainly: Cell-based insulin KIRA assay (kinase receptor activation). The following applies: Chinese hamster ovary cells transfected with hIR; peptides incubated with 25 nm IGF-1 for 1 hr; 15 min stimulation. As to the method:
Cell-Based Insulin KIRA Assay of IGF-1 Binding Peptide Activity
A kinase receptor activation assay (KIRA) (Sadick et al., J. Pharm. Biomed. Anal., 19, 883-891 (1999)) for measuring phosphorylation of human insulin receptor (hIR) was developed using Chinese hamster ovary cells transfected with the hIR. (TRY-1R 5.3) Cells were grown overnight in 96-well plates with medium (PS/20) at 37° C. Supernatants were decanted and stimulation media (PS/20 and 0.5% BSA) containing either peptide samples (peptides incubated with 25 nm IGF-1 for 1 hr), experimental controls (IGF Bp1 incubated with IGF-1 for 1 hr), and 25 nm rhIGF-1 standards were added. After fifteen minute stimulation at 37° C., stimulation solutions were removed and cells were lysed with a buffer containing 50 mM HEPES, 150 mM NaCl, 0.5% Triton-X-100™ octylphenyl ethylene oxide condensate, 1 mM AEBSF, aprotinin and 0.05 mM leupeptin, and 2 mM sodium orthovanadate. Lysates were frozen at −70° C. for ELISA. Immunosorbant plates were coated with 2 μg/ml insulin receptor Ab-2 (clone 83-7) in PBS at pH 7.0 overnight at 4° C. The plate was blocked and washed as above. Cell lysates containing transfected hIR were incubated on the capture ELISA plates for 2 hrs. After removing unbound receptor by washing, biotinylated anti-phosphotyrosine 4G10 (Upstate Biologicals Inc.) was added to detect activated receptor. After 2 hrs, the plates were developed with streptavidin conjugated to HRP and TMB substrate as above.
On to `CSCC[C@H](NC(=O)[C@@H]1CSSC[C@H](NC(=O)[C@H](CCC(=O)O)NC(=O)[C@@H](N)CC(=O)O)C(=O)N[C@@H](CC(C)C)C(=O)N[C@@H](CCSC)C(=O)N[C@@H](CO)C(=O)N[C@@H](C(C)C)C(=O)N[C@@H](CCC(=O)O)C(=O)N[C@@H](C)C(=O)N[C@@H](CC(C)C)C(=O)N[C@@H](CCCCN)C(=O)N[C@@H](CC(N)=O)C(=O)N1)C(=O)NCC(=O)NCC(=O)O` [Peptide F1-P, DECLMSVEALKNCMGG] (H-DECLMSVEALKNCMGG-OH; disulfide 3-13), for which the pIC50 is 3.74. `CC(C)[C@@H]1NC(=O)[C@@H](NC(=O)[C@H](CCCNC(=N)N)NC(=O)[C@H](C)N)CSSC[C@@H](C(=O)N[C@@H](Cc2c[nH]c3ccccc23)C(=O)N[C@@H](C)C(=O)NCC(=O)O)NC(=O)[C@H](Cc2ccc(O)cc2)NC(=O)[C@H](Cc2c[nH]c3ccccc23)NC(=O)[C@H]([C@@H](C)O)NC(=O)CNC(=O)CNC(=O)[C@H](C)NC(=O)[C@H](CC(=O)O)NC(=O)[C@H](C(C)C)NC1=O` [Peptide F2-P, ARCVVDAGGTWYCWAG] (H-ARCVVDAGGTWYCWAG-OH; disulfide 3-13) showed a pIC50 of 3.52. `CC(C)C[C@@H]1NC(=O)[C@H](CC(=O)O)NC(=O)[C@H](CO)NC(=O)[C@H](C)NC(=O)[C@@H](NC(=O)CNC(=O)[C@@H](N)CC(C)C)CSSC[C@@H](C(=O)N[C@@H](Cc2c[nH]c3ccccc23)C(=O)N[C@@H](C)C(=O)NCC(=O)O)NC(=O)[C@H](Cc2ccc(O)cc2)NC(=O)[C@H](Cc2c[nH]c3ccccc23)NC(=O)[C@H](Cc2ccccc2)NC(=O)CNC(=O)[C@H](C)NC1=O` [Peptide F2-1, LGCASDLAGFWYCWAG] (H-LGCASDLAGFWYCWAG-OH; disulfide 3-13 (inferred); N-terminus and C-terminus assumed) showed a pIC50 of 4.39.

As to `CC(C)C[C@@H]1NC(=O)[C@H](CC(=O)O)NC(=O)[C@H](CC(=O)O)NC(=O)[C@H](C(C)C)NC(=O)[C@@H](NC(=O)[C@H](CCCNC(=N)N)NC(=O)[C@@H](N)Cc2c[nH]c3ccccc23)CSSC[C@@H](C(=O)N[C@@H](Cc2c[nH]c3ccccc23)C(=O)N[C@@H](C)C(=O)NCC(=O)O)NC(=O)[C@H](Cc2ccc(O)cc2)NC(=O)[C@H](CCC(N)=O)NC(=O)[C@H](Cc2ccccc2)NC(=O)CNC(=O)CNC1=O` [Peptide F2-2, WRCVDDLGGFQYCWAG] (H-WRCVDDLGGFQYCWAG-OH; disulfide 3-13 (inferred); N-terminus and C-terminus assumed), the pIC50 was 4.03.
